Measured values taken from the supplement of paper PMC10567573.

B1: ADAMTS4 (parent)
chain: HVDPEEPWSPCSARFITDFLDNGY

Variants of: B1
Assay: protein stability index of a GFP-peptide fusion (GPS, HEK-293T) (PSI 1-6); higher = more stable
Settings: c terminus: a fixed tail appended
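Note: lentivirally expressed fusions sorted by FACS into six bins by GFP to DsRed ratio, PSI derived from sequencing read proportions per bin multiplied by bin number.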

Protein stability index, by site and new letter:
D18: W 1.53 | F 1.6 | L 2.6 | Y 1.94 | N 1.58 | C 2.73 | K 2.02 | P 2.17 | R 1.13 | A 2.2 | G 1.59 | H 1.89 | E 1.99 | M 2.9 | Q 1.67 | I 2.73 | V 2.03 | T 1.65 | S 1.61
T17: S 1.88 | E 1.57 | G 1.71 | V 1.83 | W 1.86 | D 1.81 | M 2.38 | I 2.13 | N 1.62 | P 1.88 | A 1.87 | C 2.04 | F 1.41 | R 2.03 | H 2.05 | Q 1.77 | Y 1.83 | L 2.39 | K 1.71
E6: M 2.59 | S 2.43 | H 1.74 | Q 2.24 | L 2.05 | V 1.79 | K 1.64 | Y 2.07 | W 2.57 | G 1.92 | P 2.72 | T 1.77 | I 1.56 | N 1.94 | F 2.19 | R 2.44
I16: W 1.55 | G 2.27 | Y 1.89 | L 1.67 | M 1.69 | K 1.73 | R 2.84 | E 2.33 | P 1.81 | H 1.72 | A 2.13 | C 1.59 | Q 2.07 | V 1.97 | N 2.19 | T 1.74 | S 1.98 | F 1.63 | D 1.94
L20: S 1.82 | G 2.31 | E 2.24 | M 1.82 | Y 2.14 | D 2.22 | R 2.3 | K 1.93 | N 2.39 | I 1.78 | V 1.92 | P 2.15 | Q 2.28 | H 1.92 | A 1.96 | F 2.04 | T 2.13 | C 1.52 | W 1.59
P7: I 1.61 | E 2.67 | S 2.35 | L 3.65 | W 2.54 | N 1.74 | F 2.85 | Y 2.79 | A 1.48 | H 1.57 | C 2.11 | T 1.9 | G 1.92 | Q 1.72 | M 2.23 | D 2.7 | R 2.14 | K 1.89 | V 2.56
A13: P 1.89 | I 2.19 | S 1.89 | H 1.85 | Q 1.97 | V 2.54 | K 2.08 | G 1.5 | N 2.33 | W 1.95 | R 1.87 | D 2.35 | T 1.79 | M 2.18 | L 1.88 | C 2.54 | E 2.1 | Y 1.67 | F 1.92
N22: Y 1.78 | C 2.35 | E 2.19 | D 1.88 | H 1.62 | G 2.07 | R 1.7 | P 2.09 | F 1.85 | S 1.47 | I 2.52 | Q 2.09 | K 1.57 | L 1.71 | M 1.92 | W 1.3 | T 1.46 | V 1.94 | A 1.8
C11: N 1.9 | H 2.06 | V 1.82 | S 2.19 | K 2.21 | T 2.15 | Y 3.06 | G 2.05 | Q 2.18 | I 1.79 | P 2 | E 2 | W 1.86 | R 1.7 | A 2.41 | L 1.69 | M 1.6 | F 2.1 | D 2.05
R14: N 1.86 | H 1.84 | E 2.58 | T 1.83 | A 2.05 | G 2.15 | W 1.58 | L 2.13 | Y 1.71 | F 2.27 | C 1.66 | K 2.32 | S 2.02 | M 1.51 | P 1.87 | I 2.28 | V 1.56 | Q 2 | D 2.45
S12: F 1.86 | D 2.39 | N 2.05 | R 1.97 | P 1.4 | I 2.16 | V 2.01 | Q 2.1 | W 1.67 | K 1.55 | C 1.8 | T 1.47 | E 1.88 | A 1.68 | G 1.61 | Y 1.83 | M 1.57 | H 2.31 | L 2.12
G23: K 2.06 | C 2.17 | F 2 | M 1.69 | P 2.1 | A 1.74 | Q 1.65 | D 2.24 | H 2.12 | L 1.82 | N 1.61 | I 2.05 | E 1.96 | R 1.53
P10: K 2.21 | W 2.08 | I 2.1 | T 1.92 | S 2.49 | F 1.92 | M 2.14 | Q 2.1 | G 1.88 | D 2.22 | E 2.48 | L 1.72 | V 1.74 | N 1.99 | Y 1.79 | H 1.81 | A 1.75 | C 1.5 | R 1.83
W8: T 3.54 | D 3.66 | H 3.44 | R 3.36 | Y 2.89 | I 3.34 | M 2.82 | K 3.48 | A 3.47 | V 3.5 | E 3.92 | P 3.49 | L 3.24 | Q 3.37 | G 3.2 | C 3.39 | S 3.27 | F 2.29 | N 2.95
D21: Y 1.33 | F 2.12 | G 1.76 | P 1.96 | H 1.43 | L 1.6 | W 2.42 | K 1.88 | A 1.35 | Q 2.21 | N 1.84 | T 1.96 | S 1.73 | R 1.87 | V 2.2 | I 2.69 | E 1.71 | C 1.95 | M 1.77
F15: W 1.64 | R 2.25 | Q 1.77 | A 1.94 | N 2.04 | G 2.71 | E 2.65 | Y 2.01 | C 1.97 | D 2.47 | H 1.98 | M 1.91 | P 2.08 | L 1.96 | V 1.91 | K 2.07 | I 1.71 | T 1.64 | S 1.88
F19: V 1.78 | H 2.29 | W 1.93 | M 1.89 | L 1.64 | Q 2.21 | E 1.96 | G 2.06 | K 2.16 | C 1.5 | S 2.17 | D 2.54 | P 3 | I 1.8 | R 1.65 | T 2.02 | N 2.05 | Y 1.58 | A 1.86
S9: T 1.79 | V 1.66 | F 1.93 | Y 1.85 | K 1.97 | P 2.32 | E 3.19 | M 1.77 | L 1.67 | H 2.17 | G 2.24 | A 2.05 | R 1.93 | C 2.08 | I 2.29 | N 1.67 | D 2.79 | W 1.75 | Q 1.62
